From the nanobody polyreactivity screen of Harvey et al. (2022)

Experiment: yeast display, Sf9 membrane polyspecificity reagent, FACS + sequencing; frameworks hold sequencing errors
Summary of the method: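 A synthetic nanobody library was expressed on Saccharomyces cerevisiae BJ5465 by galactose induction for 36–48 hours. The library was stained for 1 hour at 4 °C with 10% biotinylated, detergent-solubilized Sf9 membrane reagent and enriched with streptavidin microbeads before FACS. Low and high (top ~1%) gates were set on anti-HA fluorescence for expression and streptavidin fluorescence for reagent binding, and each polyreactivity label reflects the gate of origin.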

Sequence	polyreactivity (PSR sort gate)
QVQLVESGGGLVQAGGSLRLSCAASGITFFWYAMGWYRQAPGKERELVARITSDGSTSYADSVKGRFTISRDNAKNTVYLQMNSLKREDTAVYYCAADYSYIYQSWSGYENDYWGQGTQVTVSS	high polyreactivity
QVQLVEAGGGLVQAGGSLRISCAASGITFLSNAMGWYRQAPGKEMELVAVITIGGSTYYADSVKGRFTISRDNAKNTVFLQLNSLKPEDTAVYYCAVELVAVPDRRFNYWGQGTQVTVSS	low polyreactivity
QVQLVESGGGLVQARGSLRLSCAASGSTFTRYGMGWYRQAPGKERELVAAITTSGSSTYYADSVKGRFTISRDNAKNTVYLQMNSLKPEDTAVYYCAADWSSWGFDYWGQGTQVTLSS	low polyreactivity
QVQLVESGGGLVHPGGRLRLSCAASGRIYKYYVMGWYRQAPGKEREFVAAISGRGGRTYYADSVKGRFTISRDNAKNTVYLQKNSLKPEDTAVYYCATERQDRGPLGYNYWGQGTQVTVSS	high polyreactivity
QVQLVESGGGLVQAGGSLRLSCAASGSTFGGNAMGWYRQAPGKEREFVAAIRFSGGSTYYADSVKGRFTISRDNAKNTVYLQMNSLKPEDTAVYFCAKRGYGHLIPIAYEYWGQGTQVTVSS	low polyreactivity
QVQLVESGGGLVQAGGSLRLSCAASGFIFYRYAMGWYRQAPGKESELVAAISRSGGSKYYADSVKGRFTISRDLANNTVYLQLNSLKPEDTAVYYCATPVHRKLYLVNYWGQGTQVTVSS	low polyreactivity
QVQLVESGGGLVQAGGSLRLSCAASGFISARYAMGWYRQAPGKERELVAGISGGGGRTYYADSVKGRFTISRDNAKNTVYLQMNSLKPEDTAVFYCAATLQSRDRRFNYWGQGTQVTVSS	high polyreactivity
QVHLVESGGGLVQEGGSLRLSFAASGSSFIWYGMGWYRQAPGKARELVATITSSGSTNYADSVKGRFTISRDNAKNTVYLQMNSLKPEDTAVFYCAKRGPLRHYSWGQGTQVTVSS	low polyreactivity
QVQLVESGGGLVQAGGSLRLICAASGFILRRYAMGWFRPAPGKEREFVAAIRYRGGNTYYADSVKGRFTLSRDTAKNTVYFQMNSLNPEDTAVYYCAADWSEKYEYWRQGTQVTVSS	high polyreactivity
QVHLVESGGGLVQAGGSLRLSCAASGYTFVVYAMGWYIQAPGKERELVAAINKSGGSTYYADSVKGRFTISRDHAKNSVYLQMNSLKAEDTAFYYCAADLLKLRTDYYWGQGTQVTVSS	low polyreactivity
QVQLVESGGGLVQAGGSLRLSCAASGFTFNNNAMGWYRQAPGKERELVAAITSSGGSTRYADSVKGRFTISRDNAKNTVYLQMNSLKPEDTAVYYCNAARQRKYSNWYDYWGQGTQVTVSS	high polyreactivity
QVQHVESGGGLVQAGGSLRLSCAASGFIFRRYPLGWYRQAPGKERELVASISSGGNTDYADSVKGRFTISRDNAKNTVYLQMKSLNPEDTAVYYCNARVRWYPGYDYWGQGTQVTVSS	high polyreactivity
QVQLVESGGCLVQAGGSLRLSCAASGSIFSKNTMGWSRQAPGKDRELVATISIGGGSTYYADSVKGRFTISRDNAKNTVYLQMNSLKPADSAVYYCNASLRRPFSLYYYWGQGTQVTVSS	high polyreactivity
QVQLVESGGGLVQAGGSLRLSCAASGFIFQKYAMGWYRQAPGKERELVAAISRSGGSTYYADSVKGRFTISRDNAKNTVYLQMNSLKPEDTAVYYCNAVYSTSRDYWGQGTQVTVSS	high polyreactivity
QVQLVESGGGLVQAGGSLRLSCAASGSTFGVNTMGWYRQAPGKERELVAAITKSGGSTYYADSVKGRFTISRDNAKNTVYLQMNSLKPEDTAVYYCNTDYGRYLYYRYGYWGQGTQVTVSS	low polyreactivity
QGQLVESGGGLVQAGGSLRLSGAASGRTFRCNAMGWYRQAPGKERELVAAITSSGGRTYYADSVNGRFTISRDNAKNTVYLQMNSLKPEDTAVYYCAADAYQRGSGRYYEYDYWGQGTQVTVSS	high polyreactivity
QVQLVESGGGLVQAGGSLRLSCAASGLIFDYYAMGWYRQAPGKERELVAAISANTGRTYYADSVKGRFTISRDNAKNTVYLQMNSLKPEDTAVYYCAAYTQYDGAEFDYWGHGTQVTVSS	high polyreactivity
QVQLVETGGGLVQAGGSLRLSCAASGGIFVTYAMGWYRQAPGKERELVAAITSGDSTYYADSVKGRFTISRDNAKNTVYLQMNSLKAEDTGVYYCAVGSTDRVSAQGSYFTYDYWGQGTQVTVSS	low polyreactivity
QVQLVDSGGGSVQAGGSLRLSCAASGSTFYENAMGWYRQAPGKERELVAAITWSGGRTYYADSVKGRFTISRDNAKNTVYLQMYSLKPEDTAVYYCNARERSRKFYYWGQGTQVTVSS	high polyreactivity
QVQLVESGGGLVQAGGSLRLSCAASGLTIDYYTMGWYRQAPGKERELVAAINWSGGRTYYADSVKGRFTISRDHAKNTVYLQMNSLKPEDTAVYYCAADTYRRHDDDYWGQGTQVTVSS	high polyreactivity
QVQLVESGGGLVQAGGSLRLSCAASGRTFGYNAMGWYRQAPGKERELVAAIRTIGDSTYYADSVKGRFTISRDNAKNSVYLQMNSLKPEDTAVYYCAARKLRSRYDYWGQGTQVTVSS	high polyreactivity
QVQLVESGGGLVQAGGSLRLSCAASGSIFWFKAMGWYRQAPGKERELVATIRYSGGSTYYADSVKGRFTISRDNEKNTVYLQRNSMKPEDTAVYYCAADAVGDGHNDYWGLGTQVTVSS	high polyreactivity

Sequence	polyreactivity (PSR sort gate)
QVQLVESGGGLVQAGGSLRLSCAASGRIFGYYAMGWYRQAPGKERELVAAIDGSGGTTYYADSVKGRITISRDNAKNSVYLQMNSLKPEATAVYYCAARGYNSKYGYWGQGTQVTVSS	high polyreactivity
QVQLVESGRGLVQAGGSLRLSCAASGITFVRYAMGWYRQAPGKEREFVAAITTSGGSTYYADSVKGRFTISRDNAKYSVYLQLNSLKPEDTAVYYCAARANAASRTFNYWGQGTQVTVSS	high polyreactivity
QVQLVESGGGLVQAGGSLRLSCAASGFTFDYYALGWYRQAPGKERELVAAISRGGSTYYADSVKGRFTISRDNGKNTFYLQMNSLKPEDTAVYYCAVSAGKRRLDYWGQGTQVTVSS	high polyreactivity
QVQLVESGGGLVQAGGSLRLSCAASGGTFWIYAMGWYRQAPGKERELVAGISHGDSTYYADSVKGRFTISRDNAKNTVYLQMNSLKPEDTAVYYCARDYRNPPFAYEYWGQGTQVTVSS	low polyreactivity
QVQLVESGGGLVQAGGSLRLSCAASGRTFHRYVMGWYRQAPGKERELVAAITSGGRTTYADSVKGRFTISRDNAKNTVYLQMNSLKPEDTAVYYCAAELTVRGTWVQQRTFRYDYWGQGTQVTVSS	low polyreactivity
QVQLVESGGGLVQAGGSLRLSCAASGRIFSNNVMGWNRQGPGKERELVATISTDGRTNYADSVKGRFTISRDNAKNTVYLQMNSQKPEDTAVSYCAATGVTLLLSSKSDYWGQGTQVTVSS	low polyreactivity
QVQLVESGGGLVQAGGSLRLSCAATGYTFFRNTMGWYRQAPGKESELVAVITKSGGSTYYADSVKWRFTISRDNAKNTVYLHMNSLIPEDTAVYYCNAVTALRNTEYNYWGQGTQVTVSS	high polyreactivity
QVQLVESGGCLVQAGGSIRLSCAASGSTFDINAMGWYRQAPGKERELVASITFSGGSTYYADSVKGRFTISRDNAKNTGYLQMNSLKPEDTAVYYCAADSSGEYPGGYWGQGTQVTVSS	low polyreactivity
QVQLVESGGGLVQAGGSLRLSCAASGSIFVVYAMGWYRQAPGKERELVASIRTGGSTNYADSVKGRFTISRDNAKNTVYLQMNSLKPEDTAVYYCAAASWNSKRHYYVARYYYWGQGTQVTVSS	high polyreactivity
QVQLVESGGGLVQAGGSLRLSCAASGSIFDDYAMGCYIHAPGKERELVAAITWNGGSTYADSVKGRFTISRDNAKNTVYLQMNSLKPEDTAVYYCAADYFVYWYYGYGYWGQGTQVTVSS	low polyreactivity
QVQLVESGGGLVQAGGSLRLSCAASGSTFVTYAMGWYRQAPGKERELVATITTSGGSTYYADSVKGRFTISRDNAKNTVYLQMNSLKPEDTAVYYCAADYYSNYSRFDYWGQGTQVTVSS	low polyreactivity
QVQLVESGAGLVQAGGSLRLSFAASGRTFRGYAMGLYRQGPGKEREWVAAISSGGSTYYADSVKGRFTISRDNAKNTVSLQMYSLKPEDTAVYYCARAVGNYRTLEFDYWGQGTQVTVSS	low polyreactivity
QVQLVESGGGLVQAGGSLRLSCAASGITFDHYTMGWYRHAPGKEREFVADITGSGVRTYYADSVKGRFTISRDNAKNTVYLQMNCLKAEDNAVYYCAKRRTLYYSGKLGYWGQGTQVTVSS	high polyreactivity
QVQLVESGGGLVQAGGSLRLSCAASGRTFYGYAMGWYRQAPGKERELVAAITSSGGSTYYADSVKGRFTISRDNAKNTVYLQMNSLKPEDTAVYYCAKTSRYLTGGGDYWGQGTQVTVSS	high polyreactivity
QVQLVESGGGLVQAGGSLRLSCAASGSTSDINAMGWYRQAPGKERELVAAISSSGGRTYYADSVKGRFTISRDNAKNTVYLQMNSLKPEDTAVYYCAADTYTSAQHEKYDYWGQGTQVTVSS	low polyreactivity
QVQLVESGGGLVQAGGSLRLSCAASGGILVFYAMGWYRQAPGKERELVAAITKRGTSTYYADSVKGRFTISRDIEKNTVYLQMNSLKPEDTAVYYCAAESIPYYRYDYWGQGSQVTVSS	low polyreactivity
QVQLEESGGGLVQAGGSLRLSCAASGSIFVHNDMGWYRQAPGKERELVATIDSAGGTYYADSVKGRFTISRDNAKNTVYLQMNSLKPEDTAVYYCAAYGPYVLSIYDYWGQGTQVTVSS	low polyreactivity
QVQLVESGGGLVQAGGRLRLSCAASGRTFYYYAMGWYRQAPGKERELVASITYRGTRTNYADSVKGRFTISRDNAKNTVYLQMNILKPEDTAVYSCNAEVYTGYGYWGQGTQVTVSS	high polyreactivity
QVQHVESGGGLVQAGGSLRLSCAASGSTFTDYTMGWYRQAPGIESELVARIRSRGARTYYADSVKGRFTISRDNAKNTVYLQMNSLKPEDTAVYYCNKRWGAHRASPAYDYWGQGTQVTVSS	high polyreactivity
QVQLVESGGGLVQAGGSLRLSCASSGGTFTAYAMGWYSQAPGKERELVAAITTNGGRTYYADSVKGRFTISRDNAKNTVYLQMNSLKPEDTAVDYCNRVSLSRRWFLYDYWGQGTQVTVSS	high polyreactivity
QVQLVESGGGIVQAGGSLRLSCAASGRILSSYAMGWYRQAPGKERELVARISYSGGRTYYADSVKGRFTISRDNAKNTVYLQMNSQKPEDTAVYYCAAVSRVHFSYIYDYWGQGTQVTVSS	high polyreactivity
